Laboratory results taken from patent US11352401.

Target: HLA-A*01 (human)
Test: UV peptide-exchange ELISA; ++++ = yield >75%
Details: remark: other sources report otherwise

## NTDNNLAVY [… (SEQ ID NO: 164)]
  peptide exchange yield: > 75%
